Source: US20240301073A1 (SCHOLAR ROCK, published 2024)
Blank lines part the entries; values can stand above or below the binder they belong to.

Key:
[1] = biological target: T1, human LTBP3-proTGFβ1 complex (human, UniProt Q9NS15 44-1303; P01137 30-390, limits assumed); test: SPR (Biacore)
T1 construct: also called hLTBP3-proTGFβ1

[2] = biological target: T2, human LTBP1-proTGFβ1 complex (human, UniProt Q14766 347-1721; P01137 30-390); test: SPR (Biacore)
T2 construct: also called hLTBP1-proTGFβ1

[3] = biological target: T3, human GARP-proTGFβ1 complex (human, UniProt Q14392 20-627; P01137 30-390, limits assumed); test: monovalent Fab affinity (Biacore); repeats the 12th table
T3 construct: also called hGARP-proTGFβ1

[4] = biological target: T4, human LRRC33-proTGFβ1 complex (human, UniProt Q86YC3 19-650; P01137 30-390, limits assumed); test: as above
T4 construct: also called hLRRC33-proTGFβ1

[5] = biological target: T1, human LTBP3-proTGFβ1 complex; test: as above
[6] = biological target: T2, human LTBP1-proTGFβ1 complex; test: as above
[7] = biological target: T3, human GARP-proTGFβ1 complex; test: SPR (Biacore), monovalent Fab
[8] = biological target: T4, human LRRC33-proTGFβ1 complex; test: SPR (Biacore), monovalent Fab
[9] = biological target: T1, human LTBP3-proTGFβ1 complex; test: SPR (Biacore), monovalent Fab
[10] = biological target: T2, human LTBP1-proTGFβ1 complex; test: SPR (Biacore), monovalent Fab
[11] = biological target: T1, human LTBP3-proTGFβ1 complex; test: binding profile; method not stated
[12] = biological target: T2, human LTBP1-proTGFβ1 complex; test: binding profile; method not stated

T4 sequence (Q86YC3 19-650 limits assumed, chain 1 of 2): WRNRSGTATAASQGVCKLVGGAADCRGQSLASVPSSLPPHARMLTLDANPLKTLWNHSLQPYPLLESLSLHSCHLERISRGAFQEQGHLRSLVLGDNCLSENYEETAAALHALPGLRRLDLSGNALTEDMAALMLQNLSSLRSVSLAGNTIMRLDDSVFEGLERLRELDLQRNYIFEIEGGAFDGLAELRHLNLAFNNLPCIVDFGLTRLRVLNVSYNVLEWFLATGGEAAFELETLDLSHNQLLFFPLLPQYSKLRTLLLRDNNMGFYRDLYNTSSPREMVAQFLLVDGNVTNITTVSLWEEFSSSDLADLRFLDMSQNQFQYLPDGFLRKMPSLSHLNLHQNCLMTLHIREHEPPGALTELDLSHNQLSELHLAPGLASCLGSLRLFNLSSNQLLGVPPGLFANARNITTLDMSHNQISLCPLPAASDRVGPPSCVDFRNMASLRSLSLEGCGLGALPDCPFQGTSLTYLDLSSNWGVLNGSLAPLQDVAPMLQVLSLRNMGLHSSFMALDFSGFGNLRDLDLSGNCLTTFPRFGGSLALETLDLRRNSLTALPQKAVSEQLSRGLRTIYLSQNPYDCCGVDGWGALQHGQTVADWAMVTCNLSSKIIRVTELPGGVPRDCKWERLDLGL
T4 sequence (P01137 30-390 limits assumed, chain 2 of 2): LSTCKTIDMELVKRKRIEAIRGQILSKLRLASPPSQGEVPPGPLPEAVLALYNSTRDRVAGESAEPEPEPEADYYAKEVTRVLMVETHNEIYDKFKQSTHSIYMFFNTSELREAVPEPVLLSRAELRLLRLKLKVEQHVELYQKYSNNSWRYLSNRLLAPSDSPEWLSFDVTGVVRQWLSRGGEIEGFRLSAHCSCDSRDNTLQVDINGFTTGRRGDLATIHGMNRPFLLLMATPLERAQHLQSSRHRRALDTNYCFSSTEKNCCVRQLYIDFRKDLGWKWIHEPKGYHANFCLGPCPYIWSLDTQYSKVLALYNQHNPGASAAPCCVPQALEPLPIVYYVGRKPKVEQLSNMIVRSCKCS
T1 sequence (Q9NS15 44-1303 limits assumed, chain 1 of 2): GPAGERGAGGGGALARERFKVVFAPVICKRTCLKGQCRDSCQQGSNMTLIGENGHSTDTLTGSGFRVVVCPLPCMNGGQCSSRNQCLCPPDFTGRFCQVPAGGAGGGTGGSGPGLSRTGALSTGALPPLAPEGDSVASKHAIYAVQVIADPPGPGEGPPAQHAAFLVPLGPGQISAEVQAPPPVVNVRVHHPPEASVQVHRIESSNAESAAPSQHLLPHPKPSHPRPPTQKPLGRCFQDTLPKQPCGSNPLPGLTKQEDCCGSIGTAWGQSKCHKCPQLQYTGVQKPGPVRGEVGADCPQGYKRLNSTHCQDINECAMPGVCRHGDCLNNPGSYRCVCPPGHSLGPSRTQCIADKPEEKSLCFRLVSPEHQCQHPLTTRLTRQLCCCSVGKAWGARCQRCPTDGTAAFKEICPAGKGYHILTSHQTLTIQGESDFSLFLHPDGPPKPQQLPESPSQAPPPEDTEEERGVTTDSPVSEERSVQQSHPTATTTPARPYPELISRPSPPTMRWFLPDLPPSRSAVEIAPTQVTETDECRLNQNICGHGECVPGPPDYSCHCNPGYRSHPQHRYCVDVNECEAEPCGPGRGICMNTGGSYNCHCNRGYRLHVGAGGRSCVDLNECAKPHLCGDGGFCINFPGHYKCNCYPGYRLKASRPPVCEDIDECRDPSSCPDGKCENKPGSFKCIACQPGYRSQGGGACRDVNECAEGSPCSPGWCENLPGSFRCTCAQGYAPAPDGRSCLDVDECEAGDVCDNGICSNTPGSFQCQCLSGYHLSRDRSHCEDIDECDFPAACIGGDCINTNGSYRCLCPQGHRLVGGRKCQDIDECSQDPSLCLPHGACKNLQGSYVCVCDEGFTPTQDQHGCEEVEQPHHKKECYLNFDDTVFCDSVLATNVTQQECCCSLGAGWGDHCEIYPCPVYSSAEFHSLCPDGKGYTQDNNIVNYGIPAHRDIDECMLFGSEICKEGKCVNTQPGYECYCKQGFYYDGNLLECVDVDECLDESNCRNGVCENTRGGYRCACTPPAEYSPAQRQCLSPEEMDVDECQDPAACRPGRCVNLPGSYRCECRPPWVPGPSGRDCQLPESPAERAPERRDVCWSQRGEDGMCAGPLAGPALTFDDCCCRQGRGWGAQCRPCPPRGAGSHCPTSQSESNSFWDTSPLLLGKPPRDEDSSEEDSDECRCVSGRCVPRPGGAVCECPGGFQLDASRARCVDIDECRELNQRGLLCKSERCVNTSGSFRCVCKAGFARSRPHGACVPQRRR
T1 sequence (P01137 30-390 limits assumed, chain 2 of 2): as the sequence (P01137 30-390 limits assumed, chain 2 of 2) above
T2 sequence (Q14766 347-1721 limits assumed, chain 1 of 2): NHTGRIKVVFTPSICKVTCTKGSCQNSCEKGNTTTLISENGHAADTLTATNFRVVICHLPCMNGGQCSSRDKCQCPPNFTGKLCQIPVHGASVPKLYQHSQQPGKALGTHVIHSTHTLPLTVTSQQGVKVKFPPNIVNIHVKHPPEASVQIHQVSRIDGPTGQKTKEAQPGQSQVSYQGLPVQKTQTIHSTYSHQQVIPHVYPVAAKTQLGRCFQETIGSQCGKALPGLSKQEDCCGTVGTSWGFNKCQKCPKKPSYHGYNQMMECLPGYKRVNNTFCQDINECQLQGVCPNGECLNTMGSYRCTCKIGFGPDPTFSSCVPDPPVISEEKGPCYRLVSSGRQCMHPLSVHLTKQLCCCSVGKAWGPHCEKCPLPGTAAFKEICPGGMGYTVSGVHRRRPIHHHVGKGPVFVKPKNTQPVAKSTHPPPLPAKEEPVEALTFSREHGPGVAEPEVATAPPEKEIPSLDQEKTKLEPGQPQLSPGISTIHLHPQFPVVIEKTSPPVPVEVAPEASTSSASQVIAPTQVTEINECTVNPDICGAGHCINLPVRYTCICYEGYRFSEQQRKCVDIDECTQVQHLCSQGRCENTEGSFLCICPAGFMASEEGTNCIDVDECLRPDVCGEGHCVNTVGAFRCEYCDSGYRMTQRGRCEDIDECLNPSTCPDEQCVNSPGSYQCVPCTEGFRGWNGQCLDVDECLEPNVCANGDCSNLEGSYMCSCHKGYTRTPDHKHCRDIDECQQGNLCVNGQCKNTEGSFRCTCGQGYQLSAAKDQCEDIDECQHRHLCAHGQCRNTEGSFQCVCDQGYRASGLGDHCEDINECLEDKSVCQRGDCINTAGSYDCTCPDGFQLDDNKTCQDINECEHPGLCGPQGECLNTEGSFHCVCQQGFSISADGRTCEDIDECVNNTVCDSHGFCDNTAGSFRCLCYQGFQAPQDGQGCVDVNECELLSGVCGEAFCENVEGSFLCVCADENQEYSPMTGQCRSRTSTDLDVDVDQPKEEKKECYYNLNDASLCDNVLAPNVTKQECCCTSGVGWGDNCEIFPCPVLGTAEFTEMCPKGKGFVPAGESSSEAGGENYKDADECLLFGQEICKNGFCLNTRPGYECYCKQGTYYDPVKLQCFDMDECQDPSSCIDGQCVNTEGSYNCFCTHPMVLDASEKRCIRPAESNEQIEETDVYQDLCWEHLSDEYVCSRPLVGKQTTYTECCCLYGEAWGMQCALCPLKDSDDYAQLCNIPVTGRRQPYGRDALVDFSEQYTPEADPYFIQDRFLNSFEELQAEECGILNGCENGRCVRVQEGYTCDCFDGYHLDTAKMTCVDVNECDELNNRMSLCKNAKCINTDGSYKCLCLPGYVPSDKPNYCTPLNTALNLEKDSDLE
T2 sequence (P01137 30-390 limits assumed, chain 2 of 2): as the sequence (P01137 30-390 limits assumed, chain 2 of 2) above
T3 sequence (Q14392 20-627 limits assumed, chain 1 of 2): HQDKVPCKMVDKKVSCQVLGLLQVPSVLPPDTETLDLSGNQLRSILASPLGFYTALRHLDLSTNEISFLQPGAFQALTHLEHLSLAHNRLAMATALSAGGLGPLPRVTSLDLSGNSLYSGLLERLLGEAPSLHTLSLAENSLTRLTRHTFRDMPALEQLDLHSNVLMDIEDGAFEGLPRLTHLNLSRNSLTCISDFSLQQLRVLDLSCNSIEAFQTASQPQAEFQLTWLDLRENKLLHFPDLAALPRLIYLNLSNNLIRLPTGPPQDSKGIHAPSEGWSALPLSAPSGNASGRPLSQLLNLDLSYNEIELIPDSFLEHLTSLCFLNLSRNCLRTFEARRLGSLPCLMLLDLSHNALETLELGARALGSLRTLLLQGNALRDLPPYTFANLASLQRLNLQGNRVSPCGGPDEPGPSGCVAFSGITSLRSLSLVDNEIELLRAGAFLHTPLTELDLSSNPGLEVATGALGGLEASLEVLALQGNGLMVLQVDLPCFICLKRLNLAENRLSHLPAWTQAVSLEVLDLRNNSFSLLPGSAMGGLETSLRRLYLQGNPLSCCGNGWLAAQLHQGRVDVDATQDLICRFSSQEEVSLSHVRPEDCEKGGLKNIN
T3 sequence (P01137 30-390 limits assumed, chain 2 of 2): as the sequence (P01137 30-390 limits assumed, chain 2 of 2) above

- fold binding selectivity compared to GARP or LRRC33 complexes [1]: ~100 fold
- fold binding selectivity compared to GARP or LRRC33 complexes [2]: ~100 fold
- Kd [3]: 145 nM
- Kd [4]: 134 nM
- Kd [5]: 0.57 nM
- Kd [6]: 0.38 nM
- Kd [7]: 145 nM
- koff [7]: 0.006 s⁻¹
- kon [7]: 41500 M⁻¹ s⁻¹
- Kd [8]: 134 nM
- koff [8]: 0.00271 s⁻¹
- kon [8]: 20200 M⁻¹ s⁻¹
- Kd [9]: 0.57 nM
- koff [9]: 0.000109 s⁻¹
- kon [9]: 191000 M⁻¹ s⁻¹
- Kd [10]: 0.38 nM
- koff [10]: 0.000111 s⁻¹
- kon [10]: 293000 M⁻¹ s⁻¹
B1: Ab42 human Fab (Fab, V domains shown)
VH: QVQLVESGGGVVQPGRSLRLSCAASGFTFRSYVMHWVRQAPGKGLEWVAVISHEGSLKYYADSVKGRFTISRDNSKNTLYLQMNSLRAEDTAVYYCARPRIAARRGGFGYWGQGTLVTVSS
VL: NFMLTQPHSVSESPGKTVTISCTRSSGNIDNNYVQWYQQRPGSSPTTVIYEDNQRPSGVPDRFSGSIDSSSNSASLTISGLKTEDEADYYCQSYDYDTQGVVFGGGTKLTVL
notes: Fab of Ab42; also called Ab42 Fab; Ab42 (monovalent, Fab)

- fold specificity over GARP and LRRC33 complexes [11]: > 100 fold
- fold specificity over GARP and LRRC33 complexes [12]: > 100 fold
B2: Ab42 (antibody, V domains shown)
VH: B1 VH
VL: B1 VL
notes: also called SR-AB42; SR-Ab42
